Results: patent US20220204643A1 (published 2022)

What was measured:
[1] = target: T1, checkpoint kinase 2, transcript variant 3 (human); experiment: protein array
T1 construct: on protein array; also called CHEK2
T1 chain: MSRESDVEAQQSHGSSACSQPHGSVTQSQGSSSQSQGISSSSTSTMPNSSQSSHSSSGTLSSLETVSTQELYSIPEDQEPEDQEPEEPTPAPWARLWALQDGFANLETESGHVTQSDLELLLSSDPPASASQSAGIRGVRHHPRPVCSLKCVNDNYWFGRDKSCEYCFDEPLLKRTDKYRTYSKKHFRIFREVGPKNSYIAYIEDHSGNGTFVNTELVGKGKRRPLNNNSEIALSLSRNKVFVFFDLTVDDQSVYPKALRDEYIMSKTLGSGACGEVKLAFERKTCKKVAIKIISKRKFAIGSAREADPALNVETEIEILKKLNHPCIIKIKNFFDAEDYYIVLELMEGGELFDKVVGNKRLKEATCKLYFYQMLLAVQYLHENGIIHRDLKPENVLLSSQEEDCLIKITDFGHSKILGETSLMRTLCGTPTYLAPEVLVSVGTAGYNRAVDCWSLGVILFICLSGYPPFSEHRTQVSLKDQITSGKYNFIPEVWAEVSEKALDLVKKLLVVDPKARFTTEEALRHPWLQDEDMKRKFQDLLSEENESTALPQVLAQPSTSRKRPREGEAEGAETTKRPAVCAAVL

[2] = target: T2, S100 calcium binding protein B (human, UniProt P04271 2-92); experiment: protein array, with experimental replicate
T2 construct: on protein array; also called S100B
T2 sequence: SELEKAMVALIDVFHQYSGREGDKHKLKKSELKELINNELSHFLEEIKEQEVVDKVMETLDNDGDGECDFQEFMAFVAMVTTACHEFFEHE

[3] = target: T3, ankyrin repeat domain 53, transcript variant 2 (human); experiment: protein array, with experimental replicate
T3 construct: on protein array; also called ANKRD53
T3 chain: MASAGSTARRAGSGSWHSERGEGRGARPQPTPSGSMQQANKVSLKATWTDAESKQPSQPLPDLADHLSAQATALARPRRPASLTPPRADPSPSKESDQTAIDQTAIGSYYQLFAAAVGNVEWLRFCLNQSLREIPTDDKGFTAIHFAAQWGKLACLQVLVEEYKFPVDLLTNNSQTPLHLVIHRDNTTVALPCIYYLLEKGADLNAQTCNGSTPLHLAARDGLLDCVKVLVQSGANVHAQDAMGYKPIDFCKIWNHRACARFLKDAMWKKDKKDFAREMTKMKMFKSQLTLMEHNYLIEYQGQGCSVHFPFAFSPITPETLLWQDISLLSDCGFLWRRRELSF

B1: TKIC10013 (antibody, V domains shown)
VH: EVQLVESGGGLVQPGGSLRLSCAASGFTFNNYWMHWVRQAPGKGLVWVSRISSDGSTTASADSVKGRFTISRDNAKNTLFLQMNSLRAEDTAVYYCAREGAPDDYGDSGTAFDIWGQGTTVTVSS
VL: DIQLTQSPSFLSASVGDRVTITCRASQDISSFLAWYQQKPGKAPDLLIYAASTLQSGVPSRFSGSGSGTEFTLTISSLQPEDFAAYYCQHLTSFPYTFGQGTKLEIKR
notes: VH/VL tied via antigen in summary, not by name in this stretch
Question: Does B1 bind [1]?
Answer: binds

B2: TKIC10012 (antibody, V domains shown)
VH: VVQLVESGGGLVQPGGSLRLSCAASGFSFSTYWMSWVRQAPGKGLEWVANIKQDGSEKHYVDSVKGRFTISRDNAKNSLYLQMNSLRAEDTAMYYCARRAYSFDYWGQGTLVTVSS
VL: DIQMTQSPSTLSASVGDKVTITCRASQSVGSWLAWYQQKPGKAPKLLISVASSLESGVPSRFSGSGSGTEFTLTVSSLQPDDFATYYCQQYNSYSWTFGQGTKVELKR
notes: as for B1
Question: Does B2 bind [2]?
Answer: binds

B3: TKIC10019 (antibody, V domains shown)
VH: QLQLQESGPGLVKPSETLSLTCTVSDVSIISSFYYWGWIRQPPGKGLEWIGSVYYSGSTSYNPSLKSRVTISADTSKAHFSLNLRSVTAADTAVYYCVSRGPLGGAAAGPDYWGQGALVIVSS
VL: VSSELTQDPAVSVALGQTVRITCQGDSLRSYYATWYQQKPGQAPLLVIFDKDKRPSGIPDRFSGSSSGNTASLTITGAQPEDEAVYYCNSRDSSAHDHLLFGGGTTLTVLG
notes: as for B1
Question: Does B3 bind [3]?
Answer: binds
